The sequences below were run on MS2 coat protein (assay: apparent KD of MS2 coat protein; higher = weaker reporter binding). Settings: Eterna round: R107; input ligand: theophylline 2 mM.
In short: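 Designed RNA switches, transcribed on-chip from Illumina sequencing clusters, were titrated with SNAP-549-labelled MS2 coat protein from 0.7 or 1.5 nM to 3 µM in twofold steps. The solution was 100 mM Tris-HCl pH 7.5, 80 mM KCl, 4 mM MgCl2, with constant ligand or without it. Apparent KD is the median over each design's normalised cluster binding-curve fits.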

Sequence	apparent KD of MS2 coat protein [nM]
GGCCCUGCGAGCGCUCGCAGGGCCGCGGAUACCAGCGAGGUCCAUCGCCCUUGGCAGCCGAACAUGAGGAUCACCCAUGUCGGUC [#1 Same State - Theophylline A Attempt #11 (HarryS)]	28.1
UGGUACAUGAGGAUCACCCAUGUUCCAGAUACCAGAUACCCGGUUAUCCCUUGGCAGCUGGUGUUACAUGAGGAUCACCCAUGUU [Exclusion Theophylline A GF16]	81.9
GCUUGGGUGGCACGGCCCUGGCGGUGCGAUACCAGCACGGUAACGUGCCCUUGGCAGCGCACAUGAGGAUCACCCAUGUGGUGCG [#1 Exclusion - Theophylline A Attempt #24 (HarryS)]	185
AAUAAACAUGAGGAUCACCCAUGUAUGGAAGGAGCGGUGAAUAAACCAGGUAGGUCGCCAGUGUGAGGGUCAUCUAUGUAAUAAA [Exclusion - Arginine A (Freestyle 2)]	56.2
CUGCCAUGCAGAGAUACCAGUGAGCUCAGAACAUGAGGAUCACCCAUGUAGGUUGCCGAUCACCCUUGGCAGCUCUGCAUGGCAG [*$+%!]	10.9
UACAGCAGUACGGCCGCCACUCUAAGAUUGCGCGUUUAGGCCAUACAUGAGGAUCACCCAUGUCCGAGGACCGGGUACAGGAAUU [theeternabot_sameState_MS2_Trp_B_29]	502

Same assay, conditions: Eterna round: R107; input ligand: tryptophan 2.4 mM

Sequence	apparent KD of MS2 coat protein [nM]
UGGUAUGUAGGAAGGAGCGCAUACUUCACAUGAGGAUCACCCAUGUCGAGACGUGAGUCAGUGCAGGUAGGUCGCCUAGUUAUGA [Same State - Arginine B (Freestyle 22)]	29
CGUAUGUAGACGGCCGCCACUGGAACAAGAGGAUCACCCUUGUACAGGGUGGGACUAUCGAGAGUCAGGACCGGGUCUACAUACA [Tryp B Ex t2]	19.7
AAGAGUUGACAAAAGUCAGCUCAAACCGAAGGAGCGGGAGAAAUCCCAGGUAGGUCGCGGUUACAUGAGGAUCACCCAUGUUCCU [ArgAS 6 #BothOrNeither #OpenEnded]	273
AGAGUUAGACAAAAGUCUAGCUCACCAGAAGGAGCGUCCGAAAGGACAGGUAGGUCGCUGGUGCAUGAGGAUCACCCAUGCUCCU [ArgAS 19 #OpenEnded #AlternativeMS2]	211
ACGCGUCAAGAGUAAAAUCCGUCAAGUGAUACCAGCCACAACGUAGGCCCUUGGCAGCACAUGAGGAUCACCCAUGUAAUAAGGA [Gedigerace]	22.5
ACCUAAGCCACAGAUACCAGAGUAAUAGGCCAAUUUCAAAACAUGAGGAUCACCCAUGUACUCCCUUGGCAGCUGCGAAUCGAAA [theeternabot_exclusion_MS2_Theo_B_30]	10.3
AAAAUAUAGACGGCCGCCACUAUAAACAUGAGGAACAUGAGGAUCACCCAUGUAUGAGGAUCACCUAGGACCGGGUCAUAUAAAA [AstrosExyTryB#1]	40.2
GGGUAAGAUCCGGAUACCAGCGAACAUGAGGAUCACCCAUGUGAAAUAAGAUAGAAUAAACGCCCUUGGCAGCCGAAAUAGAGUU [Same State Theophylline B GF 3]	88.9
UGGGCUGGGUGCGUAAAGGGCCUGGCGCAUCGAGGACCGGUACGGCCGCCACUCGGCUGUACAUGAGGAUCACCCAUGUCAGGGU [#1 Same State - Tryptophan A Attempt #18 (HarryS)]	364
GUACAUGAGGAUCACCCAUGUAUAGUUGAAGGAGCGACCAGAGGGUCAGGUAGGUCGCAGCACAUGGUGUAAACCCGUGUAUGCC [#1 Exclusion - Arginine A Attempt #22 (Inspired by Pi)]	26.8
UAUCCACAUGAGGAUCACCCAUGUUAGGAAGGAGCGGUGAAUGAACCAGGUAGGUCGCCUAGCUGAGGACUGUCGAUGGAUUCGU [Exclusion - Arginine A (Freestyle 17)]	20.5
UGUACCUAGUCGGCCGCCACUCCAAAAGGAGAGGAUCACCCUCCUAAACGAGUCAAAGACUCGAGGAGGACCGGGACUAGGUACU [Palindromic MS2 #AlternativeMS2 #Palindrome #StaticStem]	14
UGGUUUGUGAUGGAUACCAGCAGAGAAAACGUUUAUCCUAACAUGAGGAUCACCCAUGUAUGCCCUUGGCAGCUGUUGUGGGCUA [8.S]	28.8
GACCUUGCGGGCGCCCGCAAGGUCGCGGAUACCAGCGAGGUCCAUCGCCCUUGGCAGCCGAACAUGAGGAUCACCCAUGUCGGUU [Same State - Theophylline A Attempt #5 (HarryS)]	11
UAUCCACAUGAGGAUCACCCAUGUUAGGAAGGAGCGGUGAAUGAACCAGGUAGGUCGCCUAGGUGAGGAUCAUCUAUGGAUUCGU [Exclusion - Arginine A (Freestyle 11)]	31.7
CCGGAGACCUCGGCCGCCACUCUCCAUGAGGAUCUCCCAUGUAACAUGAGGAUCACCCAUGUGCUGAGGACCGGGAGGUCCUCCU [Same State Tryptophan B GF 20]	20.9

Sequence	apparent KD of MS2 coat protein [nM]
GCUGAACAUGAGGAUCACCCAUGUCCGGAUACCAGCGGACCUCAUCGCCCUUGGCAGCCGAACCAACAGCUUGUGGUGUUCACUC [theeternabot_sameState_MS2_Theo_A_10]	37.2
AGUCUUGUAGGAAGGAGCGCAUACUUCACAUGAGGAUCACCCAUGUCAAGACGUGAGUCAGUGCAGGUAGGUCGCCUAACUAAGA [Same State - Arginine B (Freestyle 14)]	18
AGAGUUAGACAAAAGUCUAGCUCACCAGAAGGAGCGUCCGAAAGGACAGGUAGGUCGCUGGUACAUGAGCAUCAGCCAUGUUCCU [ArgAS 15 #OpenEnded #AlternativeMS2]	24.1
AACAUGAGGAUUGAUACCAGUCCAUGAGGAUCACAUGAGGAUCACCCAUGUGGAACAUGAGGCCCUUGGCAGCAGUACAACAUGA [Same State Theophylline B]	17.3
AUCGUACCUGAUGAUACCAGCAAUUGCUCGUAACAUGAGGAUCACCCAUGUGAUCAGUGAUGCCCUUGGCAGCAUGAUCGGUGCA [Same State - Theophylline B (Freestyle 19)]	248
AGCCCAUUACAUGAGGAUCACCCAUGUGAUACCAGUCAGGAAACUGACCCUUGGCAGCGCAUGAGGAUCACCCAUGCGCUGGGCA [Omei Theo A Exc A v6]	12.2
ACUCGGUGUUUGUUGCUCCGAGUACGUGAUACCAGUUAAUUUUAUGGCCCUUGGCAGCAUGGGACAUGAGGAUCACCCAUGUUUA [#04 SameState-TheophyllineA]	318
CCGAACAUGAGGAUCACCCAUGUUAGGGAUACCAGCUCAGACAUGGGCCCUUGGCAGCUCUAUAGCUGACGAAAGUCAGCAUCGG [#15 SameState-TheophyllineA]	35.4
GGCCCUGCGAGCGCUCGCAGGGCCGCGGAUACCAGCGAGGUCCAUCGCCCUUGGCAGCCGAACAUGAGGAUCACCCAUGUCGGUC [#1 Same State - Theophylline A Attempt #11 (HarryS)]	10.7
UGGUACAUGAGGAUCACCCAUGUUCCAGAUACCAGAUACCCGGUUAUCCCUUGGCAGCUGGUGUUACAUGAGGAUCACCCAUGUU [Exclusion Theophylline A GF16]	37.2
UUAGAUAUGACAGAUACCAGCGUGUUGUAGAACAUGAGGAUCACCCAUGUAGUGAUCAAGCGCCCUUGGCAGCUGGUAUGUUUGG [7.X]	179
GCUUGGGUGGCACGGCCCUGGCGGUGCGAUACCAGCACGGUAACGUGCCCUUGGCAGCGCACAUGAGGAUCACCCAUGUGGUGCG [#1 Exclusion - Theophylline A Attempt #24 (HarryS)]	13.7
AAACAUUGCUGCGAUACCAGACAUGAGGAUCACCCAUGUACCAAGGUAAGAAAAUAACAUGUCCCUUGGCAGCGCAGCAAUGAAA [MAT - Exclusion Theophlline B - Mod of Eli - D2]	15.8
AAUAAACAUGAGGAUCACCCAUGUAUGGAAGGAGCGGUGAAUAAACCAGGUAGGUCGCCAGUGUGAGGGUCAUCUAUGUAAUAAA [Exclusion - Arginine A (Freestyle 2)]	37.9
CUGCCAUGCAGAGAUACCAGUGAGCUCAGAACAUGAGGAUCACCCAUGUAGGUUGCCGAUCACCCUUGGCAGCUCUGCAUGGCAG [*$+%!]	29.6
UACAGCAGUACGGCCGCCACUCUAAGAUUGCGCGUUUAGGCCAUACAUGAGGAUCACCCAUGUCCGAGGACCGGGUACAGGAAUU [theeternabot_sameState_MS2_Trp_B_29]	89.2

Source: the supplement of paper PMC9170038
